In paper PMC11041685, “Emergence of fractal geometries in the evolution of a metabolic enzyme” (Nature, 2024) one finds stoichiometry N, Km and kcat data, which are given here for nine molecules.

Where “and” joins values, the source holds several entries; their conditions need not be identical. Equal values may be shown once.

Data set [1] has as its target D147A SeCS (Synechococcus elongatus PCC 7942). As to the kind of experiment: native MS; 200 mM ammonium acetate, positive-ion nanoelectrospray; D147A at 20 µM, D147A + L18Q at 35 µM.
Data set [2] has the same target. The description is as above. The source holds these as a separate data set.
The target is the same in data set [3]. In words: mass photometry; 50 nM protein unless stated otherwise, in PBS or 20 mM Tris, 200 mM NaCl pH 7.5; masses of the complexes in solution, fraction of CS subunits in each oligomeric state.
Data set [4] has as its target H369R SeCS (Synechococcus elongatus PCC 7942). In words: cryo-EM structure; 22.5 µM protein on Quantifoil 2/1 grids.
For data set [5] the target is unchanged. The data set is described as above. This is another data set of the same source.
The target is the same in data set [6]. As to the kind of experiment: negative-stain electron microscopy; 450 nM protein on carbon-coated copper grids, 2% uranyl acetate; 2D class averages and manual particle counts.
Data set [7] shares this target. In words: mass photometry; 50 nM protein unless stated otherwise, in PBS or 20 mM Tris, 200 mM NaCl pH 7.5; masses of the complexes in solution, fraction of CS subunits in each oligomeric state.
In data set [8] the target is SeCS D147A + L18Q (Synechococcus elongatus PCC 7942). In words: native MS; 200 mM ammonium acetate, positive-ion nanoelectrospray; D147A at 20 µM, D147A + L18Q at 35 µM.
Data set [9] shares this target. In words: mass photometry; 50 nM protein unless stated otherwise, in PBS or 20 mM Tris, 200 mM NaCl pH 7.5; masses of the complexes in solution, fraction of CS subunits in each oligomeric state.
Data set [10] concerns the target SeCS L18Q (Synechococcus elongatus PCC 7942). In words: SAXS; dilution series from the highest concentration, 25 mM Tris-HCl pH 7.5, 200 mM NaCl, 20 °C; Rg by Guinier approximation against Rg of models of the 6mer, 18mer and 54mer.
The target is the same in data set [11]. As to the kind of experiment: negative-stain electron microscopy; 450 nM protein on carbon-coated copper grids, 2% uranyl acetate; 2D class averages and manual particle counts.
Data set [12] has the same target. As to the kind of experiment: mass photometry; 50 nM protein unless stated otherwise, in PBS or 20 mM Tris, 200 mM NaCl pH 7.5; masses of the complexes in solution, fraction of CS subunits in each oligomeric state.
Data set [13] deals with citrate synthase from Cyanobium sp. PCC7001 (Cyanobium sp. PCC7001). The description is as above.
The target of data set [14] is citrate synthase from Planktothrix mougeotii (Planktothrix mougeotii). Described as above.
The target in data set [15] is citrate synthase from Synechococcus elongatus PCC 7942 (Synechococcus elongatus PCC 7942). As to the kind of experiment: SAXS; dilution series from the highest concentration, 25 mM Tris-HCl pH 7.5, 200 mM NaCl, 20 °C; Rg by Guinier approximation against Rg of models of the 6mer, 18mer and 54mer.
Data set [16] shares this target. As to the kind of experiment: cryo-EM structure; 22.5 µM protein on Quantifoil 2/1 grids.
Data set [17] has the same target. In words: negative-stain electron microscopy; 450 nM protein on carbon-coated copper grids, 2% uranyl acetate; 2D class averages and manual particle counts.
The target is the same in data set [18]. In words: mass photometry; with acetyl-CoA, oxaloacetate or citrate: protein incubated 10 min with the substrate, same substrate concentration in the buffer; cys4 after oxidation.
For data set [19] the target is unchanged. In words: mass photometry; pH titration, 20 mM Tris, 200 mM NaCl pH 7–9.5, 50 nM protein.
For data set [20] the target is unchanged. In words: mass photometry; 50 nM protein unless stated otherwise, in PBS or 20 mM Tris, 200 mM NaCl pH 7.5; masses of the complexes in solution, fraction of CS subunits in each oligomeric state.
For data set [21] the target is unchanged. In words: crystal structure; 250 µM protein incubated with 5 mM acetyl-CoA; 0.1 M citrate pH 5.5, 2.0 M ammonium sulfate, 20 °C; citrate-bound.
Data set [22] concerns the target Δ2–6 SeCS (Synechococcus elongatus PCC 7942). In words: cryo-EM structure; 22.5 µM protein on Quantifoil 2/1 grids.
Data set [23] shares this target. As to the kind of experiment: mass photometry; 50 nM protein unless stated otherwise, in PBS or 20 mM Tris, 200 mM NaCl pH 7.5; masses of the complexes in solution, fraction of CS subunits in each oligomeric state.
Substrate in data set [24]: CC(=O)SCCNC(=O)CCNC(=O)[C@H](O)C(C)(C)COP(=O)(O)OP(=O)(O)OC[C@H]1O[C@@H](n2cnc3c(N)ncnc32)[C@H](O)[C@@H]1OP(=O)(O)O
As to the kind of experiment: purified protein. It counts as biochemical, Synechococcus elongatus. The conditions noted are these: 1 mM oxaloacetate, 50 mM Tris pH 7.5, 10 mM KCl, 25 nM protein, 25 °C.

Substrate in data set [25]: O=C(O)CC(=O)C(=O)O
As to the kind of experiment: purified protein. Format: biochemical, Synechococcus elongatus. The following applies: 0.5 mM acetyl-CoA, 50 mM Tris pH 7.5, 10 mM KCl, 25 nM protein, 25 °C.

In general, stoichiometry N refers to the number of molecules, sites or subunits per partner or assembly. D147A SeCS (enzyme): the stoichiometry N in [1] was over 8 subunits; in data set [2] it was 4 subunits and 6 subunits; in data set [3], 2 subunits.
In the case of H369R SeCS (enzyme), the stoichiometry N in [4] is 18 subunits; in data set [5] it was 54 subunits; in [6] it was 18 subunits and 54 subunits; in data set [7], 18 subunits.
For the molecule SeCS D147A + L18Q (enzyme), the stoichiometry N in data set [8] was 2 subunits and 6 subunits; in data set [9], 2 subunits.
On to SeCS L18Q (enzyme), for which the stoichiometry N in [10], in data set [11] and in data set [12] was 6 subunits in each case.
Molecule “citrate synthase from Cyanobium sp. PCC7001 (enzyme)” gave a stoichiometry N in [13] of 2 subunits.
“citrate synthase from Planktothrix mougeotii (enzyme)”: the stoichiometry N in [14] came to 18 subunits.
With “citrate synthase from Synechococcus elongatus PCC 7942 (enzyme)”, the stoichiometry N in [15] was over 54 subunits; in data set [16] it was 18 subunits; in data set [17] it was 18 subunits and 36 subunits and 54 subunits; in [18], 6 subunits; in [19], 6 subunits; in [20], 18 subunits. Also, the stoichiometry N in [21] was 6 subunits.
Turning to Δ2–6 SeCS (enzyme), the stoichiometry N in data set [22] and in data set [23] was 6 subunits each time.

B1: SeCS (CS of S. elongatus PCC 7942) (Synechococcus elongatus PCC 7942 = FACHB-805) (protein)
chain: MTAVSEFRPGLEGVPATLSSISFVDGQRGVLEYRGISIEQLAQQSSFLETAYLLIWGHLPTQQELTEFEHEIRYHRRIKFRIRDMMKCFPDSGHPMDALQASAAALGLFYSRRALDDPEYIRAAVVRLLAKIPTMVAAFQLIRKGNDPIQPRDELDYAANFLYMLTEREPDPVAARIFDICLTLHAEHTINASTFSAMVTASTLTDPYAVVASAVGTLAGPLHGGANEEVLDMLEAIGSVENVEPYLDHCIATKTRIMGFGHRVYKVKDPRAVILQNLAEQLFDIFGHDPYYEIAVAVEKAAAERLSHKGIYPNVDFYSGLVYRKLGIPSDLFTPVFAIARVAGWLAHWKEQLNENRIFRPTQIYTGSHNLDYTPIADRDLAIESD
notes: full length, C-terminal His tag (LE-HHHHHH) kept, E. coli BL21 (DE3); 18mer, active as homohexamer
What is called Km is the concentration of substrate that gives half-maximal velocity. The kcat is the maximal rate divided by the concentration of active sites. As for B1, in the data set “purified protein [24]”, the Km worked out at 91.8 ± 9.2 µM and the kcat was found to be 24.2 ± 1.3 s⁻¹. Also, in “purified protein [25]”, the Km turned out to be 65.6 ± 10.6 µM and the kcat worked out at 19.5 ± 1.7 s⁻¹.
